Among the data in patent US12649772B2 are Kd values, retold here.

As a reminder, the Kd is the free concentration of one partner at which half of the binding sites on the other are occupied at equilibrium, for simple one-to-one binding.

The target in this assay is myelin basic protein peptide on HLA-DRB1*15:01 (human). Put plainly: estimate stated in the description; not measured in this filing.

A value given as a limit tells only on which side of the number the result lay.

Take Ob.1A12: the Kd was greater than 100 µM.
